Paper PMC5750214

Assays:
[1] = molecular target: mouse aortic AT1a receptor (mouse (endogenous in aorta)) (UniProt P29754); experiment: radioligand binding; saturation: [125I]-Ang II on the aortic membrane fraction of WT control mice; non-specific binding subtracted
[2] = molecular target: mouse aortic AT1a receptor (mouse (endogenous in aorta)) (UniProt P29754); experiment: radioligand binding; saturation: [125I]-Ang II on the aortic membrane fraction of WT mice with HHcy (fed Hcy); non-specific binding subtracted

Sequence of mouse aortic AT1a receptor (mouse (endogenous in aorta)) (P29754 whole entry): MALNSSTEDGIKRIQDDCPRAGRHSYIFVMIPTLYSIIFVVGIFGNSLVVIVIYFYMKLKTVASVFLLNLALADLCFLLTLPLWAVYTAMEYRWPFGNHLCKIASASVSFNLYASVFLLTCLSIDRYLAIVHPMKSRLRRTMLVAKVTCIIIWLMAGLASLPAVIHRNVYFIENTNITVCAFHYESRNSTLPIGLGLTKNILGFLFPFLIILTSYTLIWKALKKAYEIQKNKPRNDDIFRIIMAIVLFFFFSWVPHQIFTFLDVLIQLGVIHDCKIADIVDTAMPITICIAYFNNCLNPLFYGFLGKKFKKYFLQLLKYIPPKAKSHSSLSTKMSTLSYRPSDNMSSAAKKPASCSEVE

Substance [125I]-Angiotensin II (peptide) has a Kd [1] of 36.4 nM and a Kd [2] of 43.2 nM.
